To fix the notation:
B1: FCHSD1 (parent)
chain: LQEPGVFSPTPPQQFQPAGTDQVC
B2: CLCN6 (parent)
chain: VGEIVGIITRHNLTYEFLQARLRQ
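Note: lentivirally expressed fusions sorted by FACS into six bins by GFP to DsRed ratio, PSI derived from sequencing read proportions per bin multiplied by bin number.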

One data set covers variants of B1. Briefly: protein stability index of a GFP-peptide fusion (GPS, HEK-293T) (PSI 1-6); higher = more stable. The settings on record: c terminus: a fixed tail appended.
As for LQEPGVFWPTPPQQFQPAGTDQVC [S8W], the protein stability index was determined as 3.85.
Regarding LQEPGVFRPTPPQQFQPAGTDQVC [S8R], the protein stability index turned out to be 4.57.

The variants in another data set derive from B2. Described as above. The settings on record: c terminus: a fixed tail appended.
Consider VGEIVGIITRHNLTYEFLSARLRQ [Q19S], for which the protein stability index was found to be 2.49.
On to VGEIVGIITRHNLTYEFLEARLRQ [Q19E], for which the protein stability index turned out to be 2.47.
Take VGEIVGIITRHNLTYEFLGARLRQ [Q19G]: the protein stability index was 1.52.
For the variant VGEIVGIITRHNLTYEFLKARLRQ [Q19K], the protein stability index was found to be 4.39.
Same read-out and setting: for VGEIVGIITRHNLTYEFLPARLRQ [Q19P] the value was 1.62.
VGEIVGIITRHNLTYEFLQARLRS [Q24S]: the protein stability index was 2.53.
The same measure, in the same setting: to VGEIVGIITRHNLTYEFLQARLRP [Q24P] belongs 2.15; to VGEIVGIITRHNLTYEFLQARLRR [Q24R], 1.88.
Turning to VGEIVGIITRHNLTYEFLQARLRE [Q24E], the protein stability index stood at 3.09.
For the variant VGEIVGIITRHNLTYEFLQARLRA [Q24A], the protein stability index came out at 4.07.
For the variant VGEIVGIITRHNLTYEFLQARLRK [Q24K], the protein stability index is 1.61.
On to VGEIVGIITRHNLTYEFLQARLRC [Q24C], for which the protein stability index came out at 3.27.
VGEIVGIITRHNLTSEFLQARLRQ [Y15S]: the protein stability index was determined as 1.83.
For VGEIVGIITRHNLTPEFLQARLRQ [Y15P], the protein stability index is 1.62.
Regarding VGEIVGIITRHNLTREFLQARLRQ [Y15R], the protein stability index is 4.35.
Take VGEIVGIITRHNLTFEFLQARLRQ [Y15F]: the protein stability index came to 2.95.
For the variant VGEIVGIITRHNLTKEFLQARLRQ [Y15K], the protein stability index was determined as 1.47.
On to VGEIVGIITRHNLTAEFLQARLRQ [Y15A], for which the protein stability index is 2.07.
In the case of VGEIVGIITRHNLTVEFLQARLRQ [Y15V], the protein stability index amounted to 1.63.
Turning to VGEIVGIITRHNLTQEFLQARLRQ [Y15Q], the protein stability index worked out at 2.38.
Same read-out and setting: for VGEIRGIITRHNLTYEFLQARLRQ [V5R] the value was 2.55.
For VGEIQGIITRHNLTYEFLQARLRQ [V5Q], the protein stability index came out at 1.37.
On to VGEIMGIITRHNLTYEFLQARLRQ [V5M], for which the protein stability index came to 3.11.
On the same count and under the same terms, to VGEIYGIITRHNLTYEFLQARLRQ [V5Y] belongs 2.19; to VGEIHGIITRHNLTYEFLQARLRQ [V5H], 1.92.
Turning to VGEITGIITRHNLTYEFLQARLRQ [V5T], the protein stability index was determined as 1.49.
For the variant VGEISGIITRHNLTYEFLQARLRQ [V5S], the protein stability index was 1.83.
On to VGEIGGIITRHNLTYEFLQARLRQ [V5G], for which the protein stability index is 2.29.
For the variant VGEIAGIITRHNLTYEFLQARLRQ [V5A], the protein stability index was found to be 1.89.
For the variant VGEIKGIITRHNLTYEFLQARLRQ [V5K], the protein stability index was 1.38.
For VGEIVGICTRHNLTYEFLQARLRQ [I8C], the protein stability index is 1.16.
On to VGEIVGIRTRHNLTYEFLQARLRQ [I8R], for which the protein stability index was 2.64.
As to VGEIVGIHTRHNLTYEFLQARLRQ [I8H], the protein stability index was 1.79.
Regarding VGEIVGIETRHNLTYEFLQARLRQ [I8E], the protein stability index is 3.29.
Consider VGEIVGIATRHNLTYEFLQARLRQ [I8A], for which the protein stability index was 1.27.
On to VGEIVGIYTRHNLTYEFLQARLRQ [I8Y], for which the protein stability index was 1.21.
With VGEIVGISTRHNLTYEFLQARLRQ [I8S], the protein stability index was determined as 2.65.
Take VGEIVGINTRHNLTYEFLQARLRQ [I8N]: the protein stability index is 3.2.
Same read-out and setting: for VGEIVGIGTRHNLTYEFLQARLRQ [I8G] the value was 2.2; for VGEIVGIITRDNLTYEFLQARLRQ [H11D], 2.48.
On to VGEIVGIITRVNLTYEFLQARLRQ [H11V], for which the protein stability index is 2.32.
Take VGEIVGIITRNNLTYEFLQARLRQ [H11N]: the protein stability index was determined as 4.18.
Turning to VGEIVGIITRHNLFYEFLQARLRQ [T14F], the protein stability index turned out to be 2.92.
As for VGEIVGIITRHNLAYEFLQARLRQ [T14A], the protein stability index stood at 3.01.
Consider VGEIVGIITRHNLNYEFLQARLRQ [T14N], for which the protein stability index worked out at 2.03.
For the variant VGEIVGIITRHNLEYEFLQARLRQ [T14E], the protein stability index was 1.22.
The same measure, in the same setting: for VGEIVGIITRHNLLYEFLQARLRQ [T14L] the value was 2.29; for VGEIVGIITRHNLVYEFLQARLRQ [T14V], 2.98.
Take VGEIVGIITRHNLYYEFLQARLRQ [T14Y]: the protein stability index worked out at 3.07.
Turning to VGEIVGIITRHNLTYEFLQARLHQ [R23H], the protein stability index stood at 1.73.
Regarding VGEIVGIITRHNLTYEFLQARLQQ [R23Q], the protein stability index is 1.69.
For the variant VGEIVGIITRHNLTYEFLQARLFQ [R23F], the protein stability index worked out at 2.58.
Still for that read-out and setting: for VGEIVGIITRHNLTYEFLQARLPQ [R23P] the value was 1.86; for VGEIVGIITRHNLTYEFLQARLYQ [R23Y], 4.23.
Take VGEIVGIITRHNLTYEFLQARLEQ [R23E]: the protein stability index worked out at 1.2.
The same measure, in the same setting: to VGEIVGIITRHNLTYEFLQIRLRQ [A20I] belongs 2.56; to VGEIVGIITRHNLTYEFLQQRLRQ [A20Q], 2.04; to VGEIVGIITRHNLTYEFLQSRLRQ [A20S], 2.02.
With VGEIVGIITRHNLTYEFLQLRLRQ [A20L], the protein stability index was found to be 2.08.
As to VGEIVGIITRHNLTYEFLQYRLRQ [A20Y], the protein stability index came to 1.04.
As for IGEIVGIITRHNLTYEFLQARLRQ [V1I], the protein stability index came to 2.88.
Take MGEIVGIITRHNLTYEFLQARLRQ [V1M]: the protein stability index amounted to 2.29.
Regarding DGEIVGIITRHNLTYEFLQARLRQ [V1D], the protein stability index is 2.41.
With LGEIVGIITRHNLTYEFLQARLRQ [V1L], the protein stability index amounted to 1.76.
Same read-out and setting: to GGEIVGIITRHNLTYEFLQARLRQ [V1G] belongs 1.27; to FGEIVGIITRHNLTYEFLQARLRQ [V1F], 2.41.
For the variant EGEIVGIITRHNLTYEFLQARLRQ [V1E], the protein stability index was 2.25.
The same measure, in the same setting: to SGEIVGIITRHNLTYEFLQARLRQ [V1S] belongs 2.31; to TGEIVGIITRHNLTYEFLQARLRQ [V1T], 1.65.
For the variant YGEIVGIITRHNLTYEFLQARLRQ [V1Y], the protein stability index is 2.83.
In the case of CGEIVGIITRHNLTYEFLQARLRQ [V1C], the protein stability index was found to be 2.26.
QGEIVGIITRHNLTYEFLQARLRQ [V1Q]: the protein stability index was 2.08.
As for PGEIVGIITRHNLTYEFLQARLRQ [V1P], the protein stability index amounted to 1.44.
Regarding WGEIVGIITRHNLTYEFLQARLRQ [V1W], the protein stability index was 2.47.
Regarding KGEIVGIITRHNLTYEFLQARLRQ [V1K], the protein stability index was 2.18.
For the variant NGEIVGIITRHNLTYEFLQARLRQ [V1N], the protein stability index was 3.06.
Turning to VGEIVGIITRHNLTYEFLQARERQ [L22E], the protein stability index turned out to be 1.04.
As to VGEIVGIITRHNLTYEFLQARQRQ [L22Q], the protein stability index is 2.07.
For VGEIVGIITRHNLTYEFLQARYRQ [L22Y], the protein stability index is 2.44.
Same read-out and setting: to VGEIVGIITRHNLTYEFLQARWRQ [L22W] belongs 2.32; to VGEIVGIITRHNLTYEFLQARDRQ [L22D], 1.51; to VGEIVGIITRHNLTYEFLQARRRQ [L22R], 2.47.
The same measure, in the same setting: to VGEIVGIITRHNLTYEFLQARSRQ [L22S] belongs 2.58.
Take VGEIVGIITRHNLTYEFLQARVRQ [L22V]: the protein stability index was 3.2.
Consider VGEIVGIITRHNLTYEFLQARHRQ [L22H], for which the protein stability index was determined as 1.93.
As for VGEIVGIITRHNLTYKFLQARLRQ [E16K], the protein stability index worked out at 1.52.
Consider VGEIVGIITRHNLTYLFLQARLRQ [E16L], for which the protein stability index was found to be 3.17.
The same measure, in the same setting: to VGEIVGIITRHNLTYWFLQARLRQ [E16W] belongs 3.79.
VGEIVGIITRHNLTYQFLQARLRQ [E16Q]: the protein stability index is 1.93.
Turning to VGEIVGIITRHNLTYGFLQARLRQ [E16G], the protein stability index stood at 1.02.
VGEIVGIITRHNLTYHFLQARLRQ [E16H]: the protein stability index was found to be 2.17.
In the case of VGEIVGIITRHHLTYEFLQARLRQ [N12H], the protein stability index amounted to 3.27.

The values are drawn from the supplement of paper PMC10567573.
